Laboratory results: patent publication US20230235029A1 (INTEGRATED BIOTHERAPEUTICS, published 2023)

T1: Marburg virus Angola GP on rVSV pseudotype (Marburg virus, Angola strain, UniProt Q1PD50 19-681)
T1 sequence: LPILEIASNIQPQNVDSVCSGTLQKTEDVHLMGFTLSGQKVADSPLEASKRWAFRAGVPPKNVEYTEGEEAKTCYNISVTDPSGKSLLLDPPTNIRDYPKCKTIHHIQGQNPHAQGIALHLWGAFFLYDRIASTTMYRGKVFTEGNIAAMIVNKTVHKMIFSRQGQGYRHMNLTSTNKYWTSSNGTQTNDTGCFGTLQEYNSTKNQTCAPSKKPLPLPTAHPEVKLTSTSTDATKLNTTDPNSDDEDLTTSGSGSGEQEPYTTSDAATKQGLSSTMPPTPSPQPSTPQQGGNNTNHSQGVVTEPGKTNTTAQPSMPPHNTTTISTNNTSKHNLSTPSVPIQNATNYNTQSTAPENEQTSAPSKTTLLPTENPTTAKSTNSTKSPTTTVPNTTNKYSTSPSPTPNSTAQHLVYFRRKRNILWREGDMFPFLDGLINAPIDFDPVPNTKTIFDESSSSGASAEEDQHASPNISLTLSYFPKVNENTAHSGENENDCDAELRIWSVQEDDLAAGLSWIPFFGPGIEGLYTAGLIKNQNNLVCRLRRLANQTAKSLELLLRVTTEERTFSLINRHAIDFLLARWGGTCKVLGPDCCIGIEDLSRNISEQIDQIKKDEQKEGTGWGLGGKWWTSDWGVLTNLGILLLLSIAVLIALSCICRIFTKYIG

T2: RAVV GP on rVSV pseudotype (VSV-MARV RAVV GP) (Ravn virus, UniProt Q1PDC7 19-681)
T2 sequence: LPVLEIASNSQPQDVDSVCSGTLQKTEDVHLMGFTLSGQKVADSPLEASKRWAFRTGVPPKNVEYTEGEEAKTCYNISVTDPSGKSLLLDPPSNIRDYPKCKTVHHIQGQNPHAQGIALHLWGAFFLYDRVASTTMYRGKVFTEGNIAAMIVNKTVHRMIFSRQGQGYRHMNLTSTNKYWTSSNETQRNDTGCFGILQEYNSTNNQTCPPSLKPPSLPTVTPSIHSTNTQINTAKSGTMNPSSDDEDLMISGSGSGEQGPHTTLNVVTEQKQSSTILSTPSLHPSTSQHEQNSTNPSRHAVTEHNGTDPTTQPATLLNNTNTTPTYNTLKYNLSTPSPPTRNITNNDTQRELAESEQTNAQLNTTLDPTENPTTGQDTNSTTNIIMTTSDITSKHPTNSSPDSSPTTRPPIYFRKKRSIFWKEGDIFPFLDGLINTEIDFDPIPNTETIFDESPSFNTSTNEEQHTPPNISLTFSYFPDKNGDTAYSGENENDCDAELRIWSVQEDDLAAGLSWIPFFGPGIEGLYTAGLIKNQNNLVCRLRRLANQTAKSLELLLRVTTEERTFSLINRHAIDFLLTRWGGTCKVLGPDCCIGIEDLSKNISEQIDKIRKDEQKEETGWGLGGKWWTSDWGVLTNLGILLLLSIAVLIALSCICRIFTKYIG

T3: Marburg virus Musoke GP on rVSV pseudotype (VSV-MARV Musoke GP) (Marburg virus, Musoke strain, UniProt P35253 19-681)
T3 sequence: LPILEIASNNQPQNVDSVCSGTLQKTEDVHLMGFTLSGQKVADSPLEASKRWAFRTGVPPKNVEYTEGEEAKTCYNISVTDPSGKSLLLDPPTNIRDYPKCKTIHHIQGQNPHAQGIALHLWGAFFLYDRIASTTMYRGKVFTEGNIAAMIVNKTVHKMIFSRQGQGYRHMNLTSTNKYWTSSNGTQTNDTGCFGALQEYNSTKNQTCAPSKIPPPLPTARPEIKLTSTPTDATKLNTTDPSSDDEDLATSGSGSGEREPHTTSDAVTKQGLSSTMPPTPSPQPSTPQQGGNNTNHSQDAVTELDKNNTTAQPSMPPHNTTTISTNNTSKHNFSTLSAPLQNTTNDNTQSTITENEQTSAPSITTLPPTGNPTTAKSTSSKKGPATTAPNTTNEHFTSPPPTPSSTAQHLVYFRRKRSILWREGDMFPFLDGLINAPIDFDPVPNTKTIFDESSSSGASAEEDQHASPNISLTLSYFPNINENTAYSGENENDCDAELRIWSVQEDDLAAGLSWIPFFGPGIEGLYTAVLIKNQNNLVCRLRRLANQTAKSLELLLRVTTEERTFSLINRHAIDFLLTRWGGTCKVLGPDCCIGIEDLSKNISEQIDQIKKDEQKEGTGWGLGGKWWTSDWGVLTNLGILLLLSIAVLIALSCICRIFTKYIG


Columns and labels:
Experiment in all cases: cell-based or functional assay
[1] = molecular target: T1, Marburg virus Angola GP on rVSV …
[2] = molecular target: T2, RAVV GP on rVSV pseudotype (VSV-MARV …)
[3] = molecular target: T3, Marburg virus Musoke GP on rVSV …

Binder | NT50 [1] [µg/mL] | NT50 [2] [µg/mL] | NT50 [3] [µg/mL]
R13 (antibody, V domains shown) VH: EVQLVESGAGLVQPGGSLRLSCAASGFTFSNSWMTWVRQAPGKGLEWLARIKRKADGETADYAASVKGRFTISRDDSKNTLYLQMNSLKTEDTAVYYCTTYNWNFNFDFWGQGVLVTVSS VL: DIQMTQSPSSLSASVGDRVTITCRASQDISPYLNWYQQKPGKAPKLLIYYGNRLESGVPSRFSGSGSGTDLTLTISSLQPEDFATYYCQQYYRLPLTFGGGTKVETK | 0.03 | 0.07 | 0.03
R39 (antibody, V domains shown) VH: EVQLVESGAGLVQPGGSLRLSCAGSGFTFSNTWMTWVRQAPGKGLEWVARIKRKADGETADYAASVKGRFTISRDDSKNTLYLQMNSLKTEDTAVYYCTTYNWNFNFDYWGQGVLVTVSS VL: DIQMTQSPSSLSASVGDRVTITCRASQDISPYLNWYQQKPGKAPKLLIYYGNRLESGVPSRFSGSGSGTDLTLTISSLQPEDFATYYCQQYYRLPLTFGGGTKVEIK | 0.03 | 0.07 | 0.04
R15 (antibody, V domains shown) VH: EVQLVESGAGLVRPGGSLRLSCAASGFTFSNTWMTWVRQAPGRGLEWLARIKRKADGETADYAASVKGRFTISRDDSKHTLFLQMNSLKTEDTAVYYCTTYNWNFNFDNWGQGVLVTVSS VL: DIQMTQSPSSLSASVGDRVTITCRASQAFSSYLNWYQQKPGKAPKLLIYYANRLESGVPSRFSGSESGTEFTLTISSLQPEDFATYYCQQYYRLPLTFGGGTKVEIK | 0.04 | 0.08 | 0.03
R24 (antibody, V domains shown) VH: EVQLVESGAGLVQPGGSLRLSCAGSGFTFSNTWMTWVRQAPGKGLEWVARIKRKADGETADYAASVKGRFTISRDDSKSTLYLQMNSLKTEDTAVYYCTTYNWNFNFDYWGQGVLVTVSS VL: DIQMTQSPSSLSASVGDRVTITCRASQDISPYLNWYQQKPGKAPKLLIYYGNRLESGVPSRFSGSGSGTDLTLTISSLQPEDFATYYCQQYYRLPLTFGGGTKVESK | 0.04 | 0.06 | 0.03
R29 (antibody, V domains shown) VH: EVQLVESGAGLVQPGGSLRLSCIASGFTFSNSWMTWVRQAPGRGLEWIARIKRKADGETADYAASVKGRFTISRDDSKNTLYLQMNSLKTEDTAVYYCTTYNWNFNFDYWGQGVLVTVSS VL: DIQMTQSPSSLSASVGDRVTITCRASQDISPYLNWYQQKPGKAPKLLIYYGNRLESGVPSRFSGSGSGTDLTLTISSLQPEDFATYYCQQYYRLPLTFGGGTKVEIK | 0.02 | 0.03 | 0.02
R25 (antibody, V domains shown) VH: EVQLVESGAGLVQPGGSLRLSCAASGFTFSNSWMTWVRQAPGKGLEWVGRIKRKADGETADYAASVKGRFTISRDDSKNTLYLQMNSLKTEDTAVYYCTTYNWNFNFDHWGQGVLVTVSS VL: DIQMTQSPSSLSASVGDRVTITCRASQDISPYLNWYQQKPGKAPKLLIYYGNRLESGVPSRFSGSGSGTDLTLTISSLQPEDFATYYCQQYYRLPLTFGGGTKVEIK | 0.03 | 0.04 | 0.01
R45 (antibody, V domains shown) VH: EVQLVESGGGLAKPGGSLRLSCAASGFTFGDHWMSWVRQAPGNGLQWISAIDRAGGSTFYADSVKGRFTISRENAKNTLYLQIDSLRPEDTAVYFCARDQGRTVGYLDYWGQGVLVTVSS VL: QSALTQPRSVSGSPGQSVTISCTGTSSDIGSYTYVSWYRQHPGTAPKLIIYDVDERPSGVSYRFSGSKSGNTASLTISGLQAEDEADYYCSSYAGRNTWVFGGGTRLTVL | 0.1 | 0.27 | 0.1
R79 (antibody, V domains shown) VH: EVQLVESGGGLAKPGGSLRLSCAASGFTFNDYWLFWVRQAPGRGLEWISTINRPGSSTFYADSVKGRFTISRENANNALYLQMDSLRPEDTAVYYCARDQGRTVGYLDYWGQGVLVTVSS VL: QSALTQPRSVSGSPGQSVTISCTGTSSDIGSYSYVSWYQQHPGTAPKLIIYDDSERPSGVSDRFSGSKSGNTASLTISGLQAEDEADYYCSSYAGSNTWVFGGGTRLTVL | 0.21 | 0.45 | 0.17
R50 (antibody, V domains shown) VH: QVQLQESGPGLVKPSETLSLTCAVSGDSISSYWWNWIRQPPGKGLEWIGEIYGYSGSTNYNASLKSRVTISKDASKKQLSLKLSSVTAADTAVYYCARDPLNQDAFDFWGLGLRVTVSS VL: QSALTQPPSVSGSPGQSVTISCTGTSSDIGGYTYVSWYQQHPGKAPKLMIYDVSRRPSGVSDRFSGSKSGNTASLTISGLQAEDEADYYCSSYAGRNALLFGGGTRLTVL | 0.05 | 0.21 | 0.06
R53 (antibody, V domains shown) VH: QVQLQESGPGLVKPSETLSLTCAVSGASISSYWWNWIRQPPGKGLEWIGEIYGYSGSTYYSPSLKSRVTISKDASKNQFSLKLSSATAADTAVYYCVRDPLNQDAFDFWGQGLRVTVSS VL: QSALTQPPSVSGSPGQSVTISCTGTSSDIGSYDYVSWYQQHPGKAPKLMMYDVSKRPSGVFDRFSGSKSGNTASLTISGLQADDEAAYFCSSYAGRRILLFGGGTRLTVL | 0.02 | 0.07 | 0.02
R63 (antibody, V domains shown) VH: QVQLQESGPGLVKASETLSLTCAVSGASISSYWWNWIRLSPGKGLEWIGEIYGYSGSTSYNSSLKSRVSISRDASKNQFSLKLSSVTAADTAVYYCARDPLNHDAFDFWGRGFRVTVSS VL: QSALTQPPSVSGSPGQSVTISCAGTSSDIGGYTYVSWYQQHPGKAPKLMIYDVNERPSGVSDRFSGSKSGNTASLTISGLQAEDEADYYCSSYAGSKTVSFGGGTRLSVL | 0.04 | 0.17 | 0.05
R64 (antibody, V domains shown) VH: QVQLQESGPGLVKPSETLSLTCAVSGASMSDYWWNWIRQPPGKGLEWIGEIYGYSGSSYYNPSLKSRVSISKDASKKQLSLKLSSVTAADTAVYYCARDPLNQDAFDFWGLGLRVTVSS VL: QSALTQPPSVSGSPGLSVTISCTGSGSDIGGYDYVSWYQQHPGKAPKLMIYGVNKRPSGVSDRFSGSKSGNTASLSISGLQAEDEADYYCSSYAGSHTLLFGGGSRLTVL | 0.02 | 0.09 | 0.03
R55 (antibody, V domains shown) VH: QVQLQESGPGLVKPSETLSLTCAVSGDSISSYWWNWIRQPPGKGLEWIGEIYGYSGSTNYNPSLKSRVTISKDASKKQLSLKLSSVTAADTAVYYCARDPLNQDAFDFWGLGLRVTVSS VL: QSALTQPPSVSGSPGQSVTISCTGTSSDIGGYTYVSWYQQHPGKAPKLMIYDVSRRPSGVSDRFSGSKSGNTASLTISGLQAEDEADYYCSSYAGRNALLFGGGTRLTVL | 0.07 | 0.24 | 0.07
